Data published in US5500344A, “Serine protease and uses thereof” (The United States of America as represented by the …, priority 1992, dated 1996).
Starred links: 1 amine or outer side, 2 acyl side, 3 side chain; linkers in the order of their positions; H or OH if unused. Residues, ends and D or L forms follow the SMILES beside them. *: point of attachment. Suc = O=C(CCC(=O)[*:2])[*:1]; SBn = c1ccc(CS*)cc1

T1: Met-ase (Rattus norvegicus, UniProt Q03238)
T1 construct: endogenous in cells; host or cells: rat RNK-16 LGL leukemia cells, cytolytic granules, HPLC fraction 104
T1 sequence (Q03238 21-258 limits assumed): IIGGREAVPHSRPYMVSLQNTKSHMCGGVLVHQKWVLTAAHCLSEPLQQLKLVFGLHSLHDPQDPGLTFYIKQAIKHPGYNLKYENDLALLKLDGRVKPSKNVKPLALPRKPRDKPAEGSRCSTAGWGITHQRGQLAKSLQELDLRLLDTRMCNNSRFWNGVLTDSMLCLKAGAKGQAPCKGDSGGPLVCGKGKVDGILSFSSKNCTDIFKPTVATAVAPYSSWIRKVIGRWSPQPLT

T2: Asp-ase (Rattus norvegicus, UniProt P18291)
T2 construct: Asp-ase purified by HPLC as previously described; endogenous in cells; host or cells: rat RNK LGL leukemia cells, cytolytic granules, HPLC-purified (Sayers et al. 1992)
T2 sequence (P18291 21-248): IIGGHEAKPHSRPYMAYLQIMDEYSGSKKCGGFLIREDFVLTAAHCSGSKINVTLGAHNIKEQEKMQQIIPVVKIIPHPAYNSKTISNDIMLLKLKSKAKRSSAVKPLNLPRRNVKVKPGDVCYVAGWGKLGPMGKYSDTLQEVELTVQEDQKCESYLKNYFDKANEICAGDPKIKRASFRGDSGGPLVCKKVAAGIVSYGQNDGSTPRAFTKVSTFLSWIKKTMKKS

T3: Tryptase (Rattus norvegicus, UniProt P49864)
T3 construct: The BLT-esteraseactivity was found in fractions 49 and 56; endogenous in cells; host or cells: rat RNK-16 NK/LGL leukemia cells, cytolytic granules, HPLC fraction 56
T3 sequence (P49864 26-258): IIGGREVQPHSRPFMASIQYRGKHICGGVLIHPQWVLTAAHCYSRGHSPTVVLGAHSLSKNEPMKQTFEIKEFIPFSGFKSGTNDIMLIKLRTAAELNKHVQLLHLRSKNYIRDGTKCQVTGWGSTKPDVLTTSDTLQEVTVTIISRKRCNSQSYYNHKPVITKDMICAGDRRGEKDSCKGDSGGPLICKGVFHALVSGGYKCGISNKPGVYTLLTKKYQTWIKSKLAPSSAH

T4: Boc-Ala-Ala-Ser-SBzl
T4 sequence (peptide, N-terminal Boc; C-terminal thiobenzyl ester (SBzl)): AAS

T5: Boc-Ala-Ala-Asp-SBzl
T5 sequence (peptide, N-terminal Boc; C-terminal thiobenzyl ester (SBzl)): AAD

T6: Boc-Ala-Ala-Met-SBzl
T6 sequence (peptide, N-terminal Boc; C-terminal thiobenzyl ester (SBzl)): AAM

T7: Suc-Phe-Leu-Phe-SBzl
T7 sequence (peptide, N-terminal Suc; C-terminal thiobenzyl ester (SBzl)): FLF

T8: Suc-Ala-Ala-Met-SBzl
T8 sequence (peptide, N-terminal Suc; C-terminal thiobenzyl ester (SBzl)): AAM

T9: Boc-Ala-Ala-Leu-SBzl
T9 sequence (peptide, N-terminal Boc; C-terminal thiobenzyl ester (SBzl)): AAL


Tests used:
Met-ase = target: T1, Met-ase; test: Initial rates of peptide thiobenzyl ester substrate hydrolysis by HPLC-purified Met-ase (HPLC fraction 104); format: biochemical; settings: [S] 100-133 μM, pH 7.5, 25° C.
Protocol: (§1) Briefly, 50 μl of sample was added to 100 μl of 1 mM DTNB, made up in 10 mM Hepes, 1 mM CaCl2, 1 mM MgCl2, pH7.2. The reaction was initiated by the addition of 50 μl of BLT (Sigma) to give a final concentration of 500 μM. For Metase determinations, 50 μl of dilutions of the sample in 0.1M Hepes, 0.05M CaCl2, pH7.5 were added to 100 μl of 1 mM DTNB and the reaction was initiated by the addition of 50 μl of Boc-Ala-Ala-Met-S Benzyl (Bzl) to give a final concentration of 150 μM. The duration of the assay depended on color development, the rate of which was measured (0.D410) on a Dynatech MR 5000 microplate reader. Controls of sample and DTNB alone or DTNB and substrate alone were run. For more sensitive comparisons of enzymatic activities, peptide thiobenzyl ester substrates were used to measure protease activities. The chymase substrate Suc-Phe-Leu-Phe-SBzl was purchased from BACHEM Bioscience Inc., Philadelphia, Pa. […] Boc-Ala-Ala-Asp-SBzl is the substrate for Asp-ase and peptide thiobenzyl esters containing Met, Leu or Nle are substrates for Met-ase SP. […] The initial rates were measured at 324 nm using a Beckman 35 spectrophotometer when 10-25 μl of an enzyme stock solution was added to a cuvette containing 2.0 ml of buffer, 150 μl of 4,4'-dithiodipyridine and 25 μl of substrate. The same volume of substrate and 4,4'-dithiodipyridine were added to the reference cell in order to compensate for the background hydrolysis rate of the substrates. Initial rates were measured in duplicate for each substrate concentration and were averaged in each case.
(§2) 10 μl of enzyme solution was added to […]

Asp-ase = target: T2, Asp-ase; test: Initial rates of peptide thiobenzyl ester substrate hydrolysis by HPLC-purified Asp-ase; format: biochemical; settings: 10 μl enzyme solution; [S] 100-133 μM; 0.1 M Hepes, 0.01 M CaCl2, pH 7.5, 8% Me2SO, 25° C.
Protocol: as §1, §2

Tryptase = target: T3, Tryptase; test: Initial rates of peptide thiobenzyl ester substrate hydrolysis by HPLC-purified Tryptase (HPLC fraction 56); format: biochemical; settings: [S] 100-133 μM, pH 7.5, 25° C.
Protocol: as §1, §2

Boc-Ala-Ala-Ser-SBzl = target: T4, Boc-Ala-Ala-Ser-SBzl
Boc-Ala-Ala-Asp-SBzl = target: T5, Boc-Ala-Ala-Asp-SBzl
Boc-Ala-Ala-Met-SBzl = target: T6, Boc-Ala-Ala-Met-SBzl
Suc-Phe-Leu-Phe-SBzl = target: T7, Suc-Phe-Leu-Phe-SBzl
Suc-Ala-Ala-Met-SBzl = target: T8, Suc-Ala-Ala-Met-SBzl
Boc-Ala-Ala-Leu-SBzl = target: T9, Boc-Ala-Ala-Leu-SBzl
[1] = Met-ase activity of fractions on purification from RNK granules; format: biochemical, rat
Protocol: The protease of the present invention is purified to homogeneity sufficient to be sequenced and is at least about 90% pure. At this purity level, the protease has a Met-ase activity of about 156 nM/sec/μg without the intentional addition of other substances such as other proteins or carriers. The assay for measuring this activity was performed as described in the Experimental Details section. The specific activity, however, depends on the degeneracy and folding of the protease and may be as low as about 100 nM/sec/μg to as high as about 200 nM/sec/μg.
Assay of Proteases. Thiobenzylester substrates were used to measure protease activities. For monitoring enzyme activities from granules and column fractions, assays were performed at room temperature using 0.5 mM 5,5'-dithiobis-(2-nitrobenzoic acid) (DTNB) (Sigma) to detect the HSBzl leaving group (e410 =13600M-^-1 cm^-1).
BLT-esterase activity was estimated using a microtiter assay (Green, G. D. J., and Shaw, E. Anal. Biochem. 93:223-226 (1979)). Briefly, 50 μl of sample was added to 100 μl of 1 mM DTNB, made up in 10 mM Hepes, 1 mM CaCl2, 1 mM MgCl2, pH7.2. The reaction was initiated by the addition of 50 μl of BLT (Sigma) to give a final concentration of 500 μM. For Metase determinations, 50 μl of dilutions of the sample in 0.1M Hepes, 0.05M CaCl2, pH7.5 were added to 100 μl of 1 mM DTNB and the reaction was initiated by the addition of 50 μl of Boc-Ala-Ala-Met-S Benzyl (Bzl) to give a final concentration of 150 μM. The duration of the assay depended on color development, the rate of which was measured (0.D410) on a Dynatech MR 5000 microplate reader. Controls of sample and DTNB alone or DTNB and substrate alone were run. For more sensitive comparisons of enzymatic activities, peptide thiobenzyl ester substrates were used to measure protease activities. The chymase substrate Suc-Phe-Leu-Phe-SBzl was purchased from BACHEM Bioscience Inc., Philadelphia, Pa. Z-Arg-SBzl (the tryptase substrate, Kam, C-M., et al. J. Biol. Chem. 262:3444-3451 (1987)); Boc-Ala-Ala-AA-SBzl (AA=Asp, Met, Leu, Nle, or Ser) and Suc-Ala-Ala-Met-SBzl (Odake, S., et al. Biochemistry 30:2217-2227 (1991); Harper, J. W., et al. Biochemistry 23:2995-3002 (1984)) were synthesized previously. Boc-Ala-Ala-Asp-SBzl is the substrate for Asp-ase and peptide thiobenzyl esters containing Met, Leu or Nle are substrates for Met-ase SP. Assays were performed at room temperature in 0.1M, Hepes buffer, pH7.5, containing 0.01M CaCl2 and 8% Me2 SO using 0.34 mM 4,4'-dithiodipyridine (Aldrithiol-4, Aldrich Chemical Co., Milwaukee, Wis.) to detect HSBzl leaving group that reacts with 4,4'-dithiodipyridine to release thiopyridone (ε324=19800M^-1 cm^-1, Grasetti, D. R. and Murray, J. F. Arch. Biochem. Biophys. 119:41-49 (1967)). The initial rates were measured at 324 nm using a Beckman 35 spectrophotometer when 10-25 μl of an enzyme stock solution was added to a cuvette containing 2.0 ml of buffer, 150 μl of 4,4'-dithiodipyridine and 25 μl of substrate. The same volume of substrate and 4,4'-dithiodipyridine were added to the reference cell in order to compensate for the background hydrolysis rate of the substrates. Initial rates were measured in duplicate for each substrate concentration and were averaged in each case. Substrate concentrations were 100-133 μM.

[2] = 10 μl enzyme solution (HPLC fraction 56)
[3] = 10 μl enzyme solution (HPLC fraction 104)

| Molecule | Initial Rates (Boc-Ala-Ala-Ser-SBzl) | Initial Rates (Boc-Ala-Ala-Asp-SBzl) | Initial Rates (Boc-Ala-Ala-Met-SBzl) | Initial Rates (Suc-Phe-Leu-Phe-SBzl) | Initial Rates, Asp-ase (Asp-ase) | Initial Rates, Tryptase (Tryptase; [2]) | Initial Rates, Met-ase (Met-ase; [3]) | also measured |
| --- | --- | --- | --- | --- | --- | --- | --- | --- |
| CSCC[C@H](NC(=O)[C@H](C)NC(=O)[C@H](C)NC(=O)CCC(=O)O)C(=O)SCc1ccccc1 [Suc--Ala--Ala--Met--SBz1, Suc-Ala-Ala-Met-SBzl] (Suc-Ala-Ala-Met-SBn) |  |  |  |  |  |  |  | Initial Rates, Met-ase (Met-ase; 25 μl enzyme solution (HPLC fraction 104)): 10.1 nM/s |
| CC(C)C[C@H](NC(=O)[C@H](Cc1ccccc1)NC(=O)CCC(=O)O)C(=O)N[C@@H](Cc1ccccc1)C(=O)SCc1ccccc1 [Suc--Phe--Leu--Phe--SBz1, Suc-Phe-Leu-Phe-SBzl] (Suc-Phe-Leu-Phe-SBn) |  |  |  |  | 0 nM/s | 0 nM/s | 0 nM/s |  |
| N=C(N)NCCC[C@H](NC(=O)OCc1ccccc1)C(=O)SCc1ccccc1 [Z--Arg--SBz1, Z-Arg-SBzl] |  |  |  |  | 0 nM/s | 22.7 nM/s | 0 nM/s | Initial Rates, Tryptase (Tryptase; 25 μl enzyme solution (HPLC fraction 56)): 93.4 nM/s |
| Asp-ase (RNKP-1) (from UniProt P18291) (enzyme) | 1.3 nM/s | 12.6 nM/s | 0 nM/s | 0 nM/s |  |  |  |  |
| RNK-Met-1 (enzyme) IIGGREAVPHSRPYMVSLQNTKSHMCGGVLVHQKWVLTAAHCLSEPLQQLKLVFGLHSLHDPQDPGLTFYIKQAIKHPGYNLKYENDLALLKLDGRVKPSKNVKPLALPRKPRDKPAEGSRCSTAGWGITHQRGQLAKSLQELDLRLLDTRMCNNSRFWNGVLTDSMLCLKAGAKGQAPCKGDSGGPLVCGKGKVDGILSFSSKNCTDIFKPTVATAVAPYSSWIRKVIGRWSPQPLT | 0 nM/s | 0 nM/s | 4.2 nM/s | 0 nM/s |  |  |  | Initial Rates (Boc-Ala-Ala-Nle-SBzl): 3.9 nM/s; Initial Rates (Suc-Ala-Ala-Met-SBzl): 10.1 nM/s; Initial Rates (Boc-Ala-Ala-Leu-SBzl): 2.9 nM/s; Increase in the specific activity on purification to homogeneity from the granule extract [1]: 29 fold; Rate ([1]; Met-ase rate, protein in assay 10, 3.4, 1.3, 0.1 μg by fraction): 17 nM/s; Specific Activity ([1]; Met-ase, purification step): 156.0 nM/sec/μg protein; Met-ase activity ([1]; protease at least about 90% pure, no added proteins or carriers): about 156 nM/sec/μg; Total ([1]; total Met-ase activity of the fraction): 2,807 nM/sec |
